The data set “cryo-EM structure” deals with the molecule itself. Kind of data set: cryo-EM structure.
Data set [1] concerns the target CUL3 N-terminal domain (CUL3^NTD, residues 1-381) (UniProt Q13618 1-381). Kind of data set: BLI. On the technique in general: BLI is a label-free optical method that tracks binding on a fibre tip over time.

As a reminder, the stoichiometry N is the number of molecules, sites or subunits per partner or assembly. In general, Kd refers to the equilibrium constant for the complex coming apart. High values mean lower affinity, low ones higher affinity.

CUL3 N-terminal domain (CUL3^NTD, residues 1-381), sequence (Q13618 1-381): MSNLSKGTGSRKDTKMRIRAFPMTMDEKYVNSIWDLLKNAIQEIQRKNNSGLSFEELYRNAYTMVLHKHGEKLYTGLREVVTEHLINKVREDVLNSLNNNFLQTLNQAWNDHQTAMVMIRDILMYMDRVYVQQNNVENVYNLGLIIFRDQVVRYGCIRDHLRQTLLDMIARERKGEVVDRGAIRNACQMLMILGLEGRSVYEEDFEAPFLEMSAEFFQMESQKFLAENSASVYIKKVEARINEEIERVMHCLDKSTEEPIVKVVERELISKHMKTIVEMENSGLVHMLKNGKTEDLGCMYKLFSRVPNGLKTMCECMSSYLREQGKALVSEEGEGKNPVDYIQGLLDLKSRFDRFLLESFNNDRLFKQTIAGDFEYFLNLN

B1: KCTD5 (full-length, purified; SEC and cryo-EM samples) (natural protein)
chain: MAENHCELLSPARGGIGAGLGGGLCRRCSAGLGALAQRPGSVSKWVRLNVGGTYFLTTRQTLCRDPKSFLYRLCQADPDLDSDKDETGAYLIDRDPTYFGPVLNYLRHGKLVINKDLAEEGVLEEAEFYNITSLIKLVKDKIRERDSKTSQVPVKHVYRVLQCQEEELTQMVSTMSDGWKFEQLVSIGSSYNYGNEDQAEFLCVVSKELHNTPYGTASEPSEKAKILQERGSRM
B1: the “stoichiometry N” value in the data set “cryo-EM structure” was determined as 5.

B2: Thioredoxin-fusion KCTD5 (natural protein)
chain: MAENHCELLSPARGGIGAGLGGGLCRRCSAGLGALAQRPGSVSKWVRLNVGGTYFLTTRQTLCRDPKSFLYRLCQADPDLDSDKDETGAYLIDRDPTYFGPVLNYLRHGKLVINKDLAEEGVLEEAEFYNITSLIKLVKDKIRERDSKTSQVPVKHVYRVLQCQEEELTQMVSTMSDGWKFEQLVSIGSSYNYGNEDQAEFLCVVSKELHNTPYGTASEPSEKAKILQERGSRM
On to B2, for which the Kd in data set [1] was found to be 30 nM. That is a double-digit nanomolar value.

B3: KCTD5 L161R (natural protein)
chain: MAENHCELLSPARGGIGAGLGGGLCRRCSAGLGALAQRPGSVSKWVRLNVGGTYFLTTRQTLCRDPKSFLYRLCQADPDLDSDKDETGAYLIDRDPTYFGPVLNYLRHGKLVINKDLAEEGVLEEAEFYNITSLIKLVKDKIRERDSKTSQVPVKHVYRVRQCQEEELTQMVSTMSDGWKFEQLVSIGSSYNYGNEDQAEFLCVVSKELHNTPYGTASEPSEKAKILQERGSRM
With B3, in data set [1], the binding result is on record as “binds”.

The values above are taken from publication doi:10.1101/2023.09.20.558662 (bioRxiv, 2023).
